Patent US8512964

Chain of apoER2 (Q14114 whole entry): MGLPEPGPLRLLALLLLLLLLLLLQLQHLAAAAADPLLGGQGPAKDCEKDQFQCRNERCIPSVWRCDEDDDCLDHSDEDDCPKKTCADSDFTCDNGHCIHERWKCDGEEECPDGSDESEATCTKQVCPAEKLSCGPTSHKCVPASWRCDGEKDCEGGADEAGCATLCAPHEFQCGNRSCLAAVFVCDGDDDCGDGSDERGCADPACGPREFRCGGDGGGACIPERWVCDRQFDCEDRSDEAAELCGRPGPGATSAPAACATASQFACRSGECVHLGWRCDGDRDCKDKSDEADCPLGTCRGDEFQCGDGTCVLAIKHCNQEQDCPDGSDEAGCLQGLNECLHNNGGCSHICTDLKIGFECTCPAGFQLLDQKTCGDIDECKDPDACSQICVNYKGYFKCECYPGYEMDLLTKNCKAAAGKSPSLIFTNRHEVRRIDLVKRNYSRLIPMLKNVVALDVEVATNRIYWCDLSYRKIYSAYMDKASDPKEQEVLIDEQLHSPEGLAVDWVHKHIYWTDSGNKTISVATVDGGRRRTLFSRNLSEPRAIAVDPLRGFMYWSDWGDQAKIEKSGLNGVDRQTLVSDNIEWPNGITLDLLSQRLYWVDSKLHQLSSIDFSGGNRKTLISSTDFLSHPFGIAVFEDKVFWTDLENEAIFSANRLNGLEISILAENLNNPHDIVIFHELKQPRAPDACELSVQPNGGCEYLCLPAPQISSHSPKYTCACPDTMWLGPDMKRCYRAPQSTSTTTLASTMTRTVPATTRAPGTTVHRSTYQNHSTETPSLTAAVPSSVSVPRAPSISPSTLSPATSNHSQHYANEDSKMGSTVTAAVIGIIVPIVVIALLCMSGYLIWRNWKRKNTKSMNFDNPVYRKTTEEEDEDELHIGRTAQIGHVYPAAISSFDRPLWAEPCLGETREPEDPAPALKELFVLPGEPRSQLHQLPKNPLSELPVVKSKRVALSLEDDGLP

B1: myosin light chain interacting protein (Mylip) (protein)
chain: MLCYVTRPDAVLMEVEVEAKANGEDCLNQVCRRLGIIEVDYFGLQFTGSKGESLWLNLRNRISQQMDGLAPYRLKLRVKFFVEPHLILQEQTRHIFFLHIKEALLAGHLLCSPEQAVELSALLAQTKFGDYNQNTAKYNYEELCAKELSSATLNSIVAKHKELEGTSQASAEYQVLQIVSAMENYGIEWHSVRDSEGQKLLIGVGPEGISICKDDFSPINRIAYPVVQMATQSGKNVYLTVTKESGNSIVLLFKMISTRAASGLYRAITETHAFYRCDTVTSAVMMQYSRDLKGHLASLFLNENINLGKKYVFDIKRTSKEVYDHARRALYNAGVVDLVSRNNQSPSHSPLKSSESSMNCSSCEGLSCQQTRVLQEKLRKLKEAMLCMVCCEEEINSTFCPCGHTVCCESCAAQLQSCPVCRSRVEHVQHVYLPTHTSLLNLTVI
For B1, the “degradation in the cotransfection assay” value (VLDLR) was “the VLDLR and apoER2, are both capable of being degraded by Idol in our cotransfection assay”, the “degradation in the cotransfection assay” value (apoER2) was “the VLDLR and apoER2, are both capable of being degraded by Idol in our cotransfection assay” and the “degradation in the cotransfection assay” value (LRP-1b) was “Several other members, including LRP-1, LRP-1b and the EGFR receptor are not”. The “degradation in the cotransfection assay” value (EGFR receptor) was “Several other members, including LRP-1, LRP-1b and the EGFR receptor are not” and the “degradation in the cotransfection assay” value (LRP-1) was “Several other members, including LRP-1, LRP-1b and the EGFR receptor are not”.
